Reference: patent US20150359847A1, “METHOD AND COMPOSITION FOR CONFERRING NEUROPROTECTION” (BLOOD SYSTEMS RESEARCH INSTITUTE, priority 2014, published 2015)

Assays:
[1] = tested on: mouse model of controlled cortical impact (CCI); experiment: Elevated Plus Maze in controlled cortical impact (CCI) TBI mice; assay type: in vivo
From the text: The mouse controlled cortical impact (CCI) injury model was used as previously described. In brief, mice were anesthetized with 5% isoflurane and 1:1 O2:N2 mixture. Animals were mounted on a stereotaxic frame and were secured by ear bars and an incisor bar. Anesthesia was maintained with 2.0% isoflurane and 1:1 O2:N2 mixture. A 5-mm-diameter craniotomy was made midway between bregma and lambda on the right side, with the medial edge of the craniotomy 1 mm lateral to midline. Injury was produced using a magnetic impactor mounted at an angle of 110° from the vertical plane. A single impact at a velocity of 4+/−0.2 m/s was used inflict a moderate to severe injury (1.2-1.3 mm impact depth). After injury, the incision was closed. Sham animals underwent identical surgeries except for impact injury. Core body temperature was monitored using a rectal thermometer and maintained at 36.8° C.-37.2° C. with a heating pad throughout the procedure. […] Animal research was performed with approval of the Institutional Animal Care and Use Committee at ISIS Services LLC (San Carlos, Calif., USA). […]
The elevated plus maze was used to assess anxiety behavior in mice. […] The frequency of entries into the open and closed arms was recorded with an overhead camera using tracking software (Ethovision, Noldus Information Technology, Leesbury, Va.).

[2] = tested on: NeuN+ve hilar neurons of the dentate gyrus; experiment: NeuN staining of hilar neurons of the dentate gyrus 7 days post-TBI; assay type: in vivo, mouse
From the text: The mouse controlled cortical impact (CCI) injury model was used as previously described. In brief, mice were anesthetized with 5% isoflurane and 1:1 O2:N2 mixture. Animals were mounted on a stereotaxic frame and were secured by ear bars and an incisor bar. Anesthesia was maintained with 2.0% isoflurane and 1:1 O2:N2 mixture. A 5-mm-diameter craniotomy was made midway between bregma and lambda on the right side, with the medial edge of the craniotomy 1 mm lateral to midline. Injury was produced using a magnetic impactor mounted at an angle of 110° from the vertical plane. A single impact at a velocity of 4+/−0.2 m/s was used inflict a moderate to severe injury (1.2-1.3 mm impact depth). After injury, the incision was closed. Sham animals underwent identical surgeries except for impact injury. Core body temperature was monitored using a rectal thermometer and maintained at 36.8° C.-37.2° C. with a heating pad throughout the procedure. For treatments, TIMP3 (60.0 μg/kg) or vehicle control (PBS) administration was performed at 2, 24, and 48 hrs after injury via tail vein injections in a total volume of 125 μl. Animal research was performed with approval of the Institutional Animal Care and Use Committee at ISIS Services LLC (San Carlos, Calif., USA). […]

hippocampal neurons = experiment: Sholl analysis of isolated hippocampal neurons; assay type: cell-based, mouse; settings: 1 μg/ml TIMP3, 72 hrs
Procedure: SH-SY5Y cells were obtained from ATCC (Cat# CRL-2266, Manassas, Va.) and were cultured in DMEM and 10% FBS up to passage 10. For differentiation of SH-SY5Y cells into a neuronal phenotype, cells were first plated in DMEEM+10% FBS for 24 hrs before exchanging media in DMEM+1% FBS 10 μM retinoic acid. Differentiation was performed for 3 days before experimentation. Hippocampal neurons were prepared according to the protocol by Beaudoin et al. (Nature Protocols 2012; 7(9):1741-1754) with minor modifications. In brief, after trypsin digestion of hippocampi isolated from P1 mouse pups single cell suspensions was created by trituration and plated onto Biocoat™ poly-D-lysine coated 12-well plates (Cat#354470, BD Biosciences, San Jose, Calif.). 2 pups were used per well and cell suspensions were incubated for 10 minutes per well for a total of 6 wells. The serial incubation allowed for variation in cell densities applicable to different experiments but also contributed to the reduction in non-neuronal cells. […]
Sholl analysis on processed images of isolated hippocampal neurons was conducted using the Fiji derivation of Image J. (Hypertext Transfer Protocol://Fiji.sc.Fiji). […] After neurites had been traced the images were rendered as an analyzed skeleton and Sholl analysis was run on the image from the Analyze menu option.

B1: TIMP3: Recombinant tissue inhibitor of matrix metalloproteinase-3, a soluble protein released by MSCs, obtained from Amgen Inc. (protein)
chain: CTCSPSHPQDAFCNSDIVIRAKVVGKKLVKEGPFGTLVYTIKQMKMYRGFTKMPHVQYIHTEASESLCGLKLEVNKYQYLLTGRVYDGKMYTGLCNFVERWDQLTLSQRKGLNYRYHLGCNCKIKSCYYLPCFVTSKNECLWTDMLSNFGYPGYQSKHYACIRQKGGYCSWYRGWAPPDKSIINATDP
**Q.** With B1 as the molecule, how does the “frequency of entries into the closed arms (Elevated Plus Maze)” value ([1]; TBI+TIMP3 vs TBI alone, day 3) read?
**A.** comparable frequency

**Q.** What about the “frequency of entries into the open arms (Elevated Plus Maze)” value ([1]; TIMP3 60 μg/kg tail-vein at 1 hr, 24 hrs, 72 hrs post-TBI, EPM on day 3, vs TBI alone) of the same molecule?
**A.** 11±1.8

**Q.** What about the “NeuN staining, contralateral side” value [2] of the same molecule?
**A.** no significant differences on the contralateral side

**Q.** And the “NeuN+ve neurons in the hilus, ipsilateral” value ([2]; IV TIMP3 vs TBI)?
**A.** significantly attenuated the loss of NeuN+ve cells

**Q.** What about the “neurite complexity (Sholl analysis)” value (hippocampal neurons) of the same molecule?
**A.** significantly increased neurite complexity
